Measurements published in patent CN1618813A (SHANGHAI HUMAN GENOME RES CT, dated 2005).

Biological target: T1, 甲状腺素受体相互作用蛋白15 (thyroid receptor interacting protein 15, TRIP15) (human, UniProt P61201 1-443)
T1 construct: Purified prokaryotic expression product of the TRIP15 gene; also called TRIP15蛋白; 人TRIP15蛋白
Experiment: indirect ELISA, phage antibody on purified TRIP15 antigen

T1 sequence (P61201 whole entry): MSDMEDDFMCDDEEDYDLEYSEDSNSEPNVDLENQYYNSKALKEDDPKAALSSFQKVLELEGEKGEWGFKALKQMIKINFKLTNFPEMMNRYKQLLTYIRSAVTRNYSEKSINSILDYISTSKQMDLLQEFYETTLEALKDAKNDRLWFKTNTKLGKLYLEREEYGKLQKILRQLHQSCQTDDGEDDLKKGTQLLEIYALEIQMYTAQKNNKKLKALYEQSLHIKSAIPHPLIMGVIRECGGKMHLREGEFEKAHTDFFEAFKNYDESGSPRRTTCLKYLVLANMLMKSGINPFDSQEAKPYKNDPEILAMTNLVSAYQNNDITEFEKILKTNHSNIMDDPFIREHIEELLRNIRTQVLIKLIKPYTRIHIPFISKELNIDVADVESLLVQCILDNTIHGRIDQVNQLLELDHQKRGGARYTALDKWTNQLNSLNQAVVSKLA

B1: 抗TRIP15噬菌体抗体 (anti-TRIP15 phage-displayed human single-chain antibody, positive clone) (scFv, V domains shown)
VH: EVQLLESGGGLVQPGGSLRLSCAASGFTFSSYAMSWVRQAPGKGLEWVSSISNDGLKTLYADSVKGRFTISRDNSKNTLYLQMNSLRAEDTAVYYCAKNTGSFDYWGQGTLVTV
VL: DIQMTQSPSSLSASVGDRVTITCRASQSISSYLNWYQQKPGKAPKLLIYRASNLQSGVPSRFSGSGSGTDFTLTISSLQPEDFATYYCQQVLRRPATFGQGTKVEIKR
notes: also called 阳性克隆的噬菌体抗体; 针对TRIP15抗原的scFv
Does B1 bind?
Result: binds
